Positions of bridges follow the written chain, without caps; N, C: chain ends. Non-standard residues stand in square brackets, D forms with d. No end group written: not given here. Pen = CC(C)(S)[C@H](N)C(=O)O; βAla = NCCC(=O)O
B1: Peptide No. 211 (peptide)
peptide: FVTGHFG[dP]WYPA-NH2
modifications: N-terminus assumed
SMILES: CC(C)[C@H](NC(=O)[C@@H](N)Cc1ccccc1)C(=O)N[C@H](C(=O)NCC(=O)N[C@@H](Cc1c[nH]cn1)C(=O)N[C@@H](Cc1ccccc1)C(=O)NCC(=O)N1CCC[C@@H]1C(=O)N[C@@H](Cc1c[nH]c2ccccc12)C(=O)N[C@@H](Cc1ccc(O)cc1)C(=O)N1CCC[C@H]1C(=O)N[C@@H](C)C(N)=O)[C@@H](C)O
B2: Peptide No. 167 (peptide)
peptide: QRFVTGHFG[dP]LYPVNGP-NH2
modifications: N-terminus assumed
SMILES: CC(C)C[C@H](NC(=O)[C@H]1CCCN1C(=O)CNC(=O)[C@H](Cc1ccccc1)NC(=O)[C@H](Cc1c[nH]cn1)NC(=O)CNC(=O)[C@@H](NC(=O)[C@@H](NC(=O)[C@H](Cc1ccccc1)NC(=O)[C@H](CCCNC(=N)N)NC(=O)[C@@H](N)CCC(N)=O)C(C)C)[C@@H](C)O)C(=O)N[C@@H](Cc1ccc(O)cc1)C(=O)N1CCC[C@H]1C(=O)N[C@H](C(=O)N[C@@H](CC(N)=O)C(=O)NCC(=O)N1CCC[C@H]1C(N)=O)C(C)C
B3: Peptide No. 176 (peptide)
peptide: QRFVTGHFG[dP]YYPANGP-NH2
modifications: N-terminus assumed
SMILES: CC(C)[C@H](NC(=O)[C@H](Cc1ccccc1)NC(=O)[C@H](CCCNC(=N)N)NC(=O)[C@@H](N)CCC(N)=O)C(=O)N[C@H](C(=O)NCC(=O)N[C@@H](Cc1c[nH]cn1)C(=O)N[C@@H](Cc1ccccc1)C(=O)NCC(=O)N1CCC[C@@H]1C(=O)N[C@@H](Cc1ccc(O)cc1)C(=O)N[C@@H](Cc1ccc(O)cc1)C(=O)N1CCC[C@H]1C(=O)N[C@@H](C)C(=O)N[C@@H](CC(N)=O)C(=O)NCC(=O)N1CCC[C@H]1C(N)=O)[C@@H](C)O
B4: Peptide No. 175 (peptide)
peptide: QRFVTGHFG[dP]FYPANGP-NH2
modifications: N-terminus assumed
SMILES: CC(C)[C@H](NC(=O)[C@H](Cc1ccccc1)NC(=O)[C@H](CCCNC(=N)N)NC(=O)[C@@H](N)CCC(N)=O)C(=O)N[C@H](C(=O)NCC(=O)N[C@@H](Cc1c[nH]cn1)C(=O)N[C@@H](Cc1ccccc1)C(=O)NCC(=O)N1CCC[C@@H]1C(=O)N[C@@H](Cc1ccccc1)C(=O)N[C@@H](Cc1ccc(O)cc1)C(=O)N1CCC[C@H]1C(=O)N[C@@H](C)C(=O)N[C@@H](CC(N)=O)C(=O)NCC(=O)N1CCC[C@H]1C(N)=O)[C@@H](C)O
B5: Peptide No. 174 (peptide)
peptide: QRFVTGHFG[dP]IYPANGP-NH2
modifications: N-terminus assumed
SMILES: CC[C@H](C)[C@H](NC(=O)[C@H]1CCCN1C(=O)CNC(=O)[C@H](Cc1ccccc1)NC(=O)[C@H](Cc1c[nH]cn1)NC(=O)CNC(=O)[C@@H](NC(=O)[C@@H](NC(=O)[C@H](Cc1ccccc1)NC(=O)[C@H](CCCNC(=N)N)NC(=O)[C@@H](N)CCC(N)=O)C(C)C)[C@@H](C)O)C(=O)N[C@@H](Cc1ccc(O)cc1)C(=O)N1CCC[C@H]1C(=O)N[C@@H](C)C(=O)N[C@@H](CC(N)=O)C(=O)NCC(=O)N1CCC[C@H]1C(N)=O
B6: Peptide No. 169 (peptide)
peptide: QRFVTGHFG[dP]LYPINGP-NH2
modifications: N-terminus assumed
SMILES: CC[C@H](C)[C@H](NC(=O)[C@@H]1CCCN1C(=O)[C@H](Cc1ccc(O)cc1)NC(=O)[C@H](CC(C)C)NC(=O)[C@H]1CCCN1C(=O)CNC(=O)[C@H](Cc1ccccc1)NC(=O)[C@H](Cc1c[nH]cn1)NC(=O)CNC(=O)[C@@H](NC(=O)[C@@H](NC(=O)[C@H](Cc1ccccc1)NC(=O)[C@H](CCCNC(=N)N)NC(=O)[C@@H](N)CCC(N)=O)C(C)C)[C@@H](C)O)C(=O)N[C@@H](CC(N)=O)C(=O)NCC(=O)N1CCC[C@H]1C(N)=O
B7: Peptide No. 279 (peptide)
peptide: RFXTGHFGXXYPC
modifications: Pen3; Sar9; NMeLeu10; intrachain disulfide; N-termini joined by Bis-dPEG6 diacid linker; C-terminal amide
B8: Peptide No. 286 (peptide)
peptide: RFXTGHFGXXYPC
modifications: Pen3; Sar9; NMeLeu10; intrachain disulfide; N-termini joined by Glu (from Boc-Glu(OH)-OH) with a free amine; C-terminal amide
B9: Peptide No. 25 (peptide)
peptide: QRFCGHF[βAla]LYPCNGP-NH2
modifications: disulfide 4-12; N-terminus assumed
SMILES: CC(C)C[C@@H]1NC(=O)CCNC(=O)[C@H](Cc2ccccc2)NC(=O)[C@H](Cc2c[nH]cn2)NC(=O)CNC(=O)[C@@H](NC(=O)[C@H](Cc2ccccc2)NC(=O)[C@H](CCCNC(=N)N)NC(=O)[C@@H](N)CCC(N)=O)CSSC[C@@H](C(=O)N[C@@H](CC(N)=O)C(=O)NCC(=O)N2CCC[C@H]2C(N)=O)NC(=O)[C@@H]2CCCN2C(=O)[C@H](Cc2ccc(O)cc2)NC1=O
notes: printed QRFCGHF-betaAla-LYPCNGP (no Thr)
B10: Peptide No. 288 (peptide)
peptide: RFXTGHFGXXYPCGG
modifications: Pen3; Sar9; NMeLeu10; intrachain disulfide; C-termini joined through a branching Lys
notes: dimer made as Peptide No. 280
B11: Peptide No. 151 (peptide)
peptide: QRF[Pen]TGHF[dF][dA]LYPCNGP-NH2
modifications: disulfide 4-14; N-terminus assumed
SMILES: CC(C)C[C@@H]1NC(=O)[C@@H](C)NC(=O)[C@@H](Cc2ccccc2)NC(=O)[C@H](Cc2ccccc2)NC(=O)[C@H](Cc2c[nH]cn2)NC(=O)CNC(=O)[C@H]([C@@H](C)O)NC(=O)[C@@H](NC(=O)[C@H](Cc2ccccc2)NC(=O)[C@H](CCCNC(=N)N)NC(=O)[C@@H](N)CCC(N)=O)C(C)(C)SSC[C@@H](C(=O)N[C@@H](CC(N)=O)C(=O)NCC(=O)N2CCC[C@H]2C(N)=O)NC(=O)[C@@H]2CCCN2C(=O)[C@H](Cc2ccc(O)cc2)NC1=O
B12: Peptide No. 287 (peptide)
peptide: RFXTGHFGXXYPCG
modifications: Pen3; Sar9; NMeLeu10; intrachain disulfide; C-termini joined through a branching Lys
notes: dimer made as Peptide No. 280
B13: Peptide No. 280 (peptide)
peptide: RFXTGHFGXXYPC
modifications: sequence analogous to Peptide No. 235; C-termini joined through a branching Lys (Fmoc-Lys(Fmoc)-OH); intrachain disulfide
notes: dimer
B14: Peptide No. 289 (peptide)
peptide: RFXTGHFGXXYPC
modifications: Pen3; Sar9; NMeLeu10; intrachain disulfide; N-termini joined by Asp; linker amine acylated with PEG 30 kDa succinimidyl ester; C-terminal amide
notes: also called pegylated analog of Peptide No. 285

The binders below were run against T1, soluble human FcRn (shFcRn) (human, UniProt P55899 24-297; P61769 21-119, biotinylated with Sulfo-NHS-LC-Biotin in the ELISA; amine-coupled to a CM5 chip in SPR) (assay: SPR, pH 6).
T1 construct: also called biotinylated shFcRn
T1 sequence (P55899 24-297 limits assumed, chain 1 of 2): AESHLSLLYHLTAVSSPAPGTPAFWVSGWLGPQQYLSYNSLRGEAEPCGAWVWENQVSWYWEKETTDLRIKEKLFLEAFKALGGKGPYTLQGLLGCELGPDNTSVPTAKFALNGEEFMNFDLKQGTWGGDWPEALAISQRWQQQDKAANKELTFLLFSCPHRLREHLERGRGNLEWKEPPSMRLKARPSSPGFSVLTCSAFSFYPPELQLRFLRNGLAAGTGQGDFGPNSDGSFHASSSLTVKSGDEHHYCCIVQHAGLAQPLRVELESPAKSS
T1 sequence (P61769 21-119 limits assumed, chain 2 of 2): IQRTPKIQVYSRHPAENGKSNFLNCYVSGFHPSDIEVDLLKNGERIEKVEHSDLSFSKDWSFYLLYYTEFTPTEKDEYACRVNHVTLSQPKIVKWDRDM
Protocol: The following steps were performed to cross-link soluble human or cynomolgus FcRn to the dextran surface of a CM5 sensor chip (Biacore AB, Uppsala, Sweden) by an amine coupling reaction involving 1-ethyl-(3-dimethylaminopropyl)-carbodiimide hydrochloride (EDC) (Biacore AB, Uppsala, Sweden) and N-hydroxysuccinimide (NHS) (Biacore AB, Uppsala, Sweden) as recommended by Biacore (BIAapplications Handbook, version AB, section 4.2, Biacore AB, Uppsala, Sweden). The FcRn protein was diluted in 50 mM sodium acetate, pH 4.5 (Biacore AB, Uppsala, Sweden) to a concentration of 10 to 30 µg/ml and used to coat one flow cell on the sensor chip. Residual sites on the FcRn flow cell were blocked with 1 M ethanolamine hydrochloride pH 8.5 (Biacore AB, Uppsala, Sweden). A control flow cell was blocked with ethanolamine for reference subtraction. For analysis of the monomeric peptides, FcRn was coated to a final density of 4000-5000 response units (RU). For analysis of the peptide dimers, FcRn was coated to a density of 2000-2500 RU. All SPR measurements were performed using a BIACORE 3000 Instrument (Biacore AB Uppsala, Sweden). For measurements done at either pH 6 or pH 7.4, experiments were performed in 50 mM phosphate, 100 mM sodium chloride, 0.01% surfactant P20 (Biacore AB, Uppsala, Sweden).
A. Representative Procedure for the Determination of Binding Constant of Monomeric Peptides Ten 2-fold dilutions of the peptide were injected over the FcRn-CM5 chip at a rate of 20 µl/min for 2 min. The peptide was dissociated from the chip for 2.5 minutes with buffer. Any remaining peptide was removed from the chip with a 30 second injection of HBS-P buffer (Biacore AB, Uppsala, Sweden) at a rate of 30 µl/min. Sensorgrams were generated and analyzed using BiaEval software version 3.1 (Biacore AB, Uppsala, Sweden). The equilibrium RU observed for each injection was plotted against concentration. The equilibrium K_D values were derived by analysis of the plots using the steady state affinity model included in the BiaEval software.
QRFDTGHFGXLYPKNGP (D-Ala10; lactam bridge Asp4-Lys14 side chains; C-terminal amide) [Peptide No. 105] was tested, and the Kd was 2.1 µM.
In the case of B1, the Kd is reported as 8 µM.
Binder RFXTGAFGXXYPC (Pen3; Sar9; NMeLeu10; disulfide; C-terminal amide) [Peptide No. 266] has a Kd of 9.9 µM.
In the case of QRFXTGHFGXLYPXNGP (Pen4; D-Pro10; Pen14; disulfide; C-terminal amide) [Peptide No. 295], the Kd is reported as 0.28 µM.
RFXTGHFGXLYPC (Pen3; D-Pro9; disulfide; C-terminal amide) [Peptide No. 142] gave a Kd of 0.14 µM.
With QRFXTGHFXGLYPCNGP (Pen4; Sar9; disulfide; C-terminal amide) [Peptide No. 111] the Kd was 2 µM.
For QRFXTGHFXPLYPCNGP (Pen4; D-Phe9; disulfide; C-terminal amide) [Peptide No. 203], the Kd was 3.8 µM.

Each binder was assayed against T1, soluble human FcRn (shFcRn) (assay: competition ELISA vs human IgG).
Protocol: The wells were coated with 100 μl/well of 1 μg/ml biotinylated-shFcRn in Buffer A. The plate was sealed and incubated at 37° C. for 2 hours. Afterwards, the plate was washed with 200 μl/well of Buffer B (Buffer B: 100 mM MES pH 6, 150 mM NaCl, 0.5% BSA IgG-free (Jackson ImmunoResearch, West Grove, Pa.), 0.05% Tween-20). […] To allow for mixing, the plate was rocked for 2 minutes, sealed and incubated at 37° C. for 2 hours. […] The plate was covered, incubated for 30 minutes at room temperature and washed 4 times with 200 μl/well of ice-cold buffer B. SureBlue TMB substrate solution (100 μl/well, KPL, Gaithersburg, Md.) was added and the plate was allowed to incubate at room temperature until color developed, which took 5 to 10 minutes. Once color developed, 100 μl/well of TMB stop solution (KPL, Gaithersburg, Md.) was added and the absorbance was measured at 450 nm.
In the case of QRFXTGHFXGLYPCNGP (Pen4; D-Arg9; disulfide; C-terminal amide) [Peptide No. 49], the IC50 is reported as 4.1 µM.
With B2 the IC50 was 93 µM.
Binder B3 has an IC50 of 230 µM.
For QRFVTGHFGXLYPYNGP (D-Pro10; unbridged; C-terminal amide) [Peptide No. 171], the IC50 was 150 µM.
B4 was tested, and the IC50 was 200 µM.
In the case of B5, the IC50 is reported as 94 µM.
With B6 the IC50 was 72 µM.
With QRFVTGHFGXLYPWNGP (D-Pro10; unbridged; C-terminal amide) [Peptide No. 172] the IC50 was 150 µM.
For QRFCTGHFGGLFPCNGP (disulfide; C-terminal amide) [Peptide No. 26], the IC50 was > 125 µM.
B7 was tested, and the IC50 was 0.007 µM.
With B8 the IC50 was 0.0056 µM.
In the case of QRFXTGHFXGLYPCNGP (Pen4; D-Tyr9; disulfide; C-terminal amide) [Peptide No. 53], the IC50 is reported as 3.2 µM.
In the case of B9, the IC50 is reported as > 125 µM.
B10 was tested, and the IC50 was 0.016 µM.
For B11, the IC50 was 4.3 µM.
B12 gave an IC50 of 0.02 µM.
QRFXTGHFGXLYPXNGP (Pen4; D-Pro10; Pen14; disulfide; C-terminal amide) [Peptide No. 295] showed an IC50 of 1.6 µM.
Work on B13 yielded an IC50 of 0.025 µM.
B14 was tested, and the IC50 was 0.018 µM.
Binder QRXXTGHFGGLYPCNGP (D-Phe3; Pen4; disulfide; C-terminal amide) [Peptide No. 96] has an IC50 of 11.4 µM.
For QRFCTGHFGGLYPXNGP (D-Cys14; disulfide; C-terminal amide) [Peptide No. 30], the IC50 was 125 µM.

From US8906844B2 (SYNTONIX PHARMACEUTICALS, dated 2014)
